The values below come from US20250002565A1.

For the test, the target named is recombinant HIV gp41 (HIV). Nature of the test: ELISA against recombinant gp41 (in PBS). (ELISA stands for enzyme-linked immunosorbent assay.)

B1: recombinant class switched IgA2 antibody (antibody, V domains shown)
VH: QVQLVESGGGVVQPGRSLRLSCAASGFTFSSYAIHWVRQAPGKGLEWVAVISYDGSNRYYADSVKGRFTISRDNSKNTLYLQMNSLRPEDTAVYYCARDRFSAVASTPTYHNYFYMDVWGKGTTVTVSS
On to B1, for which the EC50 came out at 1.29 µg/mL.

As a reminder, the EC50 is the concentration needed to bring the measured effect to its halfway point.
